The experiment has as its target T1, M2 protein expressed on the surface of PR8-infected MDCK cells (Influenza A virus A/Puerto Rico/8/1932 …, UniProt P06821 1-97).
T1 construct: whole, on cells
Briefly: FMAT, crude supernatant on PR8-infected MDCK cells.

The source of these data is US20120121603A1 (THERACLONE SCIENCES, published 2012).

T1 sequence (P06821 whole entry): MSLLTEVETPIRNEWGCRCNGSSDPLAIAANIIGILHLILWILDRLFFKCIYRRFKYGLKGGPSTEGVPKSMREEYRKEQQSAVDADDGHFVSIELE

B1: 23K12 (antibody, V domains shown)
VH: EVQLVESGGGLVQPGGSLRISCAASGFTVSSNYMSWVRQAPGKGLEWVSVIYSGGSTYYADSVKGRFSFSRDNSKNTVFLQMNSLRAEDTAVYYCARCLSRMRGYGLDVWGQGTTVTVS
VL: DIQMTQSPSSLSASVGDRVTITCRTSQSISSYLNWYQQKPGKAPKLLIYAASSLQSGVPSRFSGSGSGTDFTLTISGLQPEDFATYYCQQSYSMPAFGQGTKLEIK
Consider B1, for which the binding result is listed as “binds”.
